The values that follow come from paper PMC8699727.

The pKd is −log10 of the Kd, conventionally taken in molar units.

This experiment has as its target Microtubules polymerized from purified porcine brain tubulin (porcine) (UniProt P02550). The experiment is described as follows: co-sedimentation.

pKd: −log10 of the molar value.

Turning to “GST-TAOK2-C (1,187–1,235) (from UniProt Q9UL54 1187-1235) (domain or fragment)”, the pKd is 6.17.
